Assay [1] has as its target T1, soluble recombinant of human FasL (His6, Pro134-Leu281) (UniProt P48023 134-281).
T1 chain: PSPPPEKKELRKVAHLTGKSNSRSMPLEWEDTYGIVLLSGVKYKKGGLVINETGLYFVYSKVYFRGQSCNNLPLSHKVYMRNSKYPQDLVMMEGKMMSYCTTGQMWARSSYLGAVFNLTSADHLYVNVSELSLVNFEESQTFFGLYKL
In words: BIAcore SPR. The method in brief: (§1)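 Surface plasmon resonance was used to analyse how each test molecule bound to soluble recombinant His-tagged LIGHT, TL1A or FasL of human or cynomolgus monkey origin. Runs took place in HBS-EP+ Buffer on a BIAcore T-100 or T-200 instrument (GE Healthcare). The dissociation constant (Kd, nM) was obtained from these measurements.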
In general terms: In SPR one partner is held on a chip, and binding of the other changes the refractive index at the surface.

In assay [2] the target is T2, soluble recombinant of human TL1A (His6, GS linker, Leu72-Leu251) (UniProt O95150 72-251).
T2 chain: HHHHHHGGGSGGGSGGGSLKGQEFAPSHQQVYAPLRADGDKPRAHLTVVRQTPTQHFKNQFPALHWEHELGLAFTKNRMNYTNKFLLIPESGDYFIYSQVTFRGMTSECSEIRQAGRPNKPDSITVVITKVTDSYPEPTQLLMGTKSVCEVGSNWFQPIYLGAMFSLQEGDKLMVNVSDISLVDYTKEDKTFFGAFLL
The assay can be described thus: BIAcore SPR. In a few lines: as §1

In assay [3] the target is T3, soluble recombinant of human LIGHT (His10, GS linker, Asp74-Val240).
T3 chain: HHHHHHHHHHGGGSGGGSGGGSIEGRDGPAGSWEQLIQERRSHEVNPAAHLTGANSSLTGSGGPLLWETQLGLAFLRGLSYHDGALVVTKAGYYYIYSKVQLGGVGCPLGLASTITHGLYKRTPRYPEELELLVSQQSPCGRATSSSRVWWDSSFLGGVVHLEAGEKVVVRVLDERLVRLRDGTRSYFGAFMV
The assay can be described thus: BIAcore SPR. The method in brief: as §1

Assay [4] has as its target T4, soluble recombinant of cynomolgus monkey FasL (His6, Pro133-Leu280) (UniProt P63308 133-280).
T4 chain: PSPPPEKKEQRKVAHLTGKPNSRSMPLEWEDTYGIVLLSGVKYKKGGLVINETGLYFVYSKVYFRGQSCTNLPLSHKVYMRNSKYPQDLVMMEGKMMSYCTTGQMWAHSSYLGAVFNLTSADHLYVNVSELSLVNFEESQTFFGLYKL
The assay can be described thus: BIAcore SPR. In a few lines: as §1

In assay [5] the target is T5, soluble recombinant of cynomolgus monkey LIGHT (His10, GS linker, Asp74-Val240).
T5 chain: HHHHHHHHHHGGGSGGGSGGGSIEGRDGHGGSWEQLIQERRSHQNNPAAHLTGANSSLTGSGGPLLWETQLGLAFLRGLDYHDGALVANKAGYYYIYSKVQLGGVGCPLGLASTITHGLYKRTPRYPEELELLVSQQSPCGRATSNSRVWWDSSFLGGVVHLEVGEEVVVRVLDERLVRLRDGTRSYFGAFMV
In words: BIAcore SPR. In a few lines:
as §1

In assay [6] the target is T6, soluble recombinant of cynomolgus monkey TL1A (His6, GS linker, Leu72-Leu251).
T6 chain: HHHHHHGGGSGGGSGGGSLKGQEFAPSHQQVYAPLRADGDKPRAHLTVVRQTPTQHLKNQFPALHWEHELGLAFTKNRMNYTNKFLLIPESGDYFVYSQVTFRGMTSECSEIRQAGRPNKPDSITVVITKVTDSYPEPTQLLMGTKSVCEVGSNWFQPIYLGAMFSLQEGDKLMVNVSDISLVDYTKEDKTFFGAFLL
The assay can be described thus: BIAcore SPR. In a few lines: as §1

Assay [7] has as its target T7, FLAG-cynoLIGHT (FLAG tag, cynomolgus monkey LIGHT Asp74-Val240) (cynomolgus monkey).
T7 construct: SEC trimer fraction; also called soluble cynomolgus monkey LIGHT trimer
T7 chain: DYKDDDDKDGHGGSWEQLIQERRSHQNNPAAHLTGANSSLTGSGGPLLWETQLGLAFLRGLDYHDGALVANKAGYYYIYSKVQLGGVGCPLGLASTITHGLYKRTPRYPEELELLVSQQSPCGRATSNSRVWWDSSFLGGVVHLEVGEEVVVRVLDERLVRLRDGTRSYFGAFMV
In words: SPR, binder captured on Protein A chip. The procedure: (§2) The binding activity to human and cynomolgus monkey DcR3 ligand trimers were analyzed by the SPR method. BIAcore T-100 (GE Healthcare) was used for measurement of the binding activities to human LIGHT, cynomolgus monkey LIGHT, human TL1A and cynomolgus monkey TL1A, and BIAcore T-200 (GE Healthcare) was used for measurement of the binding activities to human FasL and cynomolgus monkey FasL. As the buffer, HBS-EP+Buffer was used.
(§3) Various DcR3 variants were injected into Series S Sensor Chip Protein A (GE Healthcare) at 10 μL/min for 30 seconds and captured. Meanwhile, the buffer containing no protein was injected into a reference flow cell. Thereafter, as an analyte, each human DcR3 ligand trimer or each cynomolgus monkey DcR3 ligand trimer diluted to 0.08 to 20 nmol/L was injected. A human LIGHT trimer, a human TL1A trimer or each cynomolgus monkey DcR3 ligand trimer was injected at the flow rate of 30 μL/min for 2 minutes to monitor the binding, and subsequently the buffer was injected for 5 minutes to monitor dissociation. A human FasL trimer was injected at 30 μL/min for 1 minute to monitor the binding, and subsequently the buffer was injected for 3 minutes to monitor dissociation. Then, 3 mol/L magnesium chloride was injected at 30 μL/min for 1 minute to perform a regeneration reaction.

The target in assay [8] is T8, FLAG-LIGHT (FLAG tag, human LIGHT Asp74-Val240) (human, UniProt O43557 74-240).
T8 construct: SEC trimer fraction; also called soluble recombinant FLAG-LIGHT trimer; soluble human LIGHT trimer
In words: SPR, binder captured on Protein A chip. The procedure: as §2, §3

In assay [9] the target is T9, Human His6 Fas Ligand/TNFSF6 (Cell Signaling Technology, Inc.) (human, UniProt P48023 133-281).
T9 construct: Bought; confirmed as a trimer by SEC-MALS; also called recombinant human His6 Fas Ligand; soluble human FasL trimer
T9 sequence: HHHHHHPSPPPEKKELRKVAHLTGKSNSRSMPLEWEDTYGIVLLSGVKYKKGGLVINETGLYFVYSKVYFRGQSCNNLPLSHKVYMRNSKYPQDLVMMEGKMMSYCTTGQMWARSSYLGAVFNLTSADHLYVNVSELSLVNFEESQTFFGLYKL
The assay can be described thus: SPR, binder captured on Protein A chip. The procedure:
as §2, §3

As usually defined, the Kd is the concentration at which binding is half-saturated.

B1: chimera A-E57K-Fc (Eg1S YTE) (Fc fusion)
chain: ETFPPKYLHYDEETSHQLLCDKCPPGTYLKQHCTAKWKTVCAPCPPRHYTQFWNYLKRCRYCNVLCGEREEEARACHATHNRACRCRTGFFAHAGFCLEHASCPPGAGVIAPGTPSQNTQCQPCPDGFFSNETSSKAPCRKHTNCSVFGLLLTQKGNATHDNICSGNSESTQKEPKSSDKTHTCPPCPAPELLGGPSVFLFPPKPKDTLYITREPEVTCVVVDVSHEDPEVKFNWYVDGVEVHNAKTKPREEQYNSTYRVVSVLTVLHQDWLNGKEYKCKVSNKALPAPIEKTISKAKGQPREPQVYTLPPSRDELTKNQVSLTCLVKGFYPSDIAVEWESNGQPENNYKTTPPVLDSDGSFFLYSKLTVDKSRWQQGNVFSCSVMHEALHNHYTQKSLSLSPGK
In the case of B1, the equilibrium dissociation constant (Kd) in assay [1] is 4.3 nM; in assay [2], 0.28 nM; in assay [3], 0.38 nM; in assay [4], 1.1 nM; in [5], 0.26 nM; in assay [6], 0.31 nM. Moreover, the binding result in assay [7], in [8] and in [9] was “binds” in each case.

B2: chimera A-E57R-Fc (Eg1S LALAGANA) (Fc fusion)
chain: ETFPPKYLHYDEETSHQLLCDKCPPGTYLKQHCTAKWKTVCAPCPPRHYTQFWNYLRRCRYCNVLCGEREEEARACHATHNRACRCRTGFFAHAGFCLEHASCPPGAGVIAPGTPSQNTQCQPCPDGFFSNETSSKAPCRKHTNCSVFGLLLTQKGNATHDNICSGNSESTQKEPKSSDKTHTCPPCPAPEAAGAPSVFLFPPKPKDTLMISRTPEVTCVVVDVSHEDPEVKFNWYVDGVEVHNAKTKPREEQYNSTYRVVSVLTVLHQDWLNGKEYKCKVSNKALPAPIEKTISKAKGQPREPQVYTLPPSRDELTKNQVSLTCLVKGFYPSDIAVEWESNGQPENNYKTTPPVLDSDGSFFLYSKLTVDKSRWQQGNVFSCSVMHEALHAHYTQKSLSLSPGK
Turning to B2, the Kd amounted to 4.6 nM in assay [1]; 0.31 nM in assay [2]; 0.38 nM in assay [3]; 1.1 nM in assay [4]; 0.29 nM in assay [5]; 0.32 nM in [6]. Also, the binding result in assay [7], in [8] and in assay [9] was “binds” in each case.

The values above are taken from patent publication US20220340642A1 (Kyowa Kirin, published 2022).
